From publication PMC6658013 (PLoS Pathogens, 2019)

Biological target: T1, prefusion-stabilized RSV F (DS-Cav1), subtype B (strain B9320), with C-terminal His tag and Strep-tag II … (human respiratory syncytial virus B, …, UniProt Q6V2E7, stabilised)
T1 construct: copies: 3 + 3
Assay: SPR
Settings: both partners purified

B1: RSD5-WT Fab (parental RSD5) (Fab, V domains shown)
VH: QVQLVESGGGVVQPGRPLRLSCAASGFAFNNFALHWVRQAPGKGPEWLAAVSYDGTSPYYAESVRARFSISRDNSKKTFYLQLDSLRPEDTAVYYCARGLGSGSYSWIGYFYAMDVWGRGTTVTVSS
VL: QSALTQPASVSGSPGQSITISCTGTSSDVGGYVYVAWYQQHPGTAPKLIIYDVSDRPSGVSNRFSGSKSGNTASLTISGLQAEDDADYYCISYTDRNTVVFGGGTKLTVL
- binding result: binds
